Data as given in paper PMC2814945 (Peptides, 2009).

T1: HA-tagged human Neuropeptide S receptor, N101A mutant in the N107 background (human, UniProt Q6W5P4 1-371, N101A)
T1 sequence (looked up): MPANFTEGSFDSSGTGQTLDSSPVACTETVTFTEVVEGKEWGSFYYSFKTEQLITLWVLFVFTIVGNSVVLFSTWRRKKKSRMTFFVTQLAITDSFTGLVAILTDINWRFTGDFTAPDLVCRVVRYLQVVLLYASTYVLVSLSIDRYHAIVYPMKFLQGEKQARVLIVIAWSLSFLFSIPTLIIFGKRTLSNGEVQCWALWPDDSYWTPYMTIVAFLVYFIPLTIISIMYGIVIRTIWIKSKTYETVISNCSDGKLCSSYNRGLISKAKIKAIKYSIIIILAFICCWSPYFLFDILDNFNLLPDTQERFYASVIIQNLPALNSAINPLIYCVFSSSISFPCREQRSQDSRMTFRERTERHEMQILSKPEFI

T2: HA-tagged human Neuropeptide S receptor, N107 variant (human, UniProt Q6W5P4 1-371)
T2 sequence (looked up): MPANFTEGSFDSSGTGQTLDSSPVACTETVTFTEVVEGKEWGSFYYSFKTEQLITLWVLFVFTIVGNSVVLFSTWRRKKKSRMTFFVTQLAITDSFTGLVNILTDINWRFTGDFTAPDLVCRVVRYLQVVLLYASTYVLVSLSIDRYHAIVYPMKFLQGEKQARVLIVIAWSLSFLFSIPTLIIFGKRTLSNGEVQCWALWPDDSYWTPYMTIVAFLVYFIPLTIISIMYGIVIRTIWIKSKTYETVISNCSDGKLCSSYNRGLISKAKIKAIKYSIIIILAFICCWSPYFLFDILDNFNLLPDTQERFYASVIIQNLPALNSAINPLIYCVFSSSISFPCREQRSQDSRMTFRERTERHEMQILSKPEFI

T3: HA-tagged human Neuropeptide S receptor, I107 variant (human, UniProt Q6W5P4 1-371, N107I)
T3 sequence (looked up): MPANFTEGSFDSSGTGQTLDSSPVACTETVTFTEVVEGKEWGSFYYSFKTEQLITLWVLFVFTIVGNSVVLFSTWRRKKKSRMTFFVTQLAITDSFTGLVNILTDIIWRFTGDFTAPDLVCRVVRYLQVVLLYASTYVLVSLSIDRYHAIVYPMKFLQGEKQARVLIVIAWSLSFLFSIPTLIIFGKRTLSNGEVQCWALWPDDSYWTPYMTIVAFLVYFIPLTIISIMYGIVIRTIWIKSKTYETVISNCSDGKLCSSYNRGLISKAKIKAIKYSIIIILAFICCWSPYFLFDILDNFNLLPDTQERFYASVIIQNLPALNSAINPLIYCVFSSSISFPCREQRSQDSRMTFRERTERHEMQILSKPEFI

T4: HA-tagged human Neuropeptide S receptor, D105A mutant in the N107 background (human, UniProt Q6W5P4 1-371, D105A)
T4 sequence (looked up): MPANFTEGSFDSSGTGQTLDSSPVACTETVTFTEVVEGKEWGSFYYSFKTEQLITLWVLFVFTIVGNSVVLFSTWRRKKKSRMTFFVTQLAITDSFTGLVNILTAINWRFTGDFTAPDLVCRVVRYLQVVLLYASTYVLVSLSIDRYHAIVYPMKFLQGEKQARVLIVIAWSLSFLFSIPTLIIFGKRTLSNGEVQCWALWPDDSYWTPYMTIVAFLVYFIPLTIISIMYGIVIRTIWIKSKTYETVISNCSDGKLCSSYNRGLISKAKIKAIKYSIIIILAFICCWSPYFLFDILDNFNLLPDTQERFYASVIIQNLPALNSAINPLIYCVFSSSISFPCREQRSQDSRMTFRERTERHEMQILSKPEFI


Tests used:
[1] = target: HA-tagged human Neuropeptide S receptor, D105A mutant in the N107 background (human) (UniProt Q6W5P4)
[2] = target: T1, HA-tagged human Neuropeptide S …; assay: cell-based or functional assay
[3] = target: T2, HA-tagged human Neuropeptide S …; assay: cell-based or functional assay
[4] = target: T3, HA-tagged human Neuropeptide S …; assay: cell-based or functional assay
[5] = target: T4, HA-tagged human Neuropeptide S …; assay: cell-based or functional assay
[6] = target: T2, HA-tagged human Neuropeptide S …; assay: radioligand binding
[7] = target: T4, HA-tagged human Neuropeptide S …; assay: radioligand binding

EC50 of receptor activation by human NPS 1-18 (unpublished data) [1] | EC50 of NPS-mediated mobilisation of intracellular Ca2+ (FLIPR), stable clone #2 [2] | EC50 of NPS-mediated mobilisation of intracellular Ca2+ (FLIPR), stable clone #6 [2] | EC50 of NPS-mediated mobilisation of intracellular Ca2+ (FLIPR), stable clone #2 [3] | EC50 of NPS-mediated mobilisation of intracellular Ca2+ (FLIPR), stable clone #4 [3] | EC50 of NPS-mediated mobilisation of intracellular Ca2+ (FLIPR), stable clone #4 [4] | EC50 of NPS-mediated mobilisation of intracellular Ca2+ (FLIPR), stable clone #5 [4] | EC50 of receptor activation by human NPS 1-20 (unpublished data) [5] | IC50 [6] | IC50 [7] | Molecule
1000 nM |  |  |  |  |  |  |  |  |  | human NPS 1-18 (peptide)
 | 12 nM | 42 nM | 25 nM | 4.9 nM | 1.6 nM | 1.7 nM | ~1000 nM | 8.7 ± 1.9 nM | > 200 nM | SFRNGVGTGMKKTSFQRAKS (peptide, UniProt P0C0P6 70-89, looked up) [Neuropeptide S (human)]
